Reference: the supplement of paper PMC7877785
± gives the uncertainty stated by the source.

Experiment: self-splicing fitness, log relative to wild type (ln ratio); higher = more splicing; Tetrahymena group I intron in knt gene, E. coli kanamycin selection, DiMSum; sequences stand for … in CUCUCU…GGAGGGAAAAGUUAUCAGGCAUGCACCUGGUAGCUAGUCUUUAAACCAAUAGAUUGCAUCGGUUUAAAAGGCAAGACCGUCAAAUUGCGGGAAAGGGGUCAACAGCCGUUCAGUACCAAGUCUCAGGGGAAACUUUGAGAUGGCCUUGCAAAGGGUAUGGUAAUAAGCUGACGGACAUGGUCCUAACCACGCAGCCAAGUCCUAAGUCAACAGAUCUUCUGUUGAUAUGGAUGCAGUUCACAGACUAAAUGUCGGUCGGGGAAGAUGUAUUCUUCUCAUAAGAUAUAGUCGGACCUCUCCUUAAUGGGAGCUAGCGGAUGAAGUGAUGCAACACUGGAGCCGCUGGGAACUAAUUUGUAUGCGAAAGUAUAUUGAUUAGUUUUGGAGUACUCGUGGUCG
Outline: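 DiMSum derived fitness as the error-weighted combination of fold changes across replicates, kanamycin versus no kanamycin, normalised to wild type. E. coli BL21(DE3) held the library, which randomised all eight P1ex-region intron nucleotides within the knt kanamycin-resistance gene on pET-22b(+). Six replicate transformations grew overnight at 37°C or 30°C on LB agar with or without 25 μg/mL kanamycin, also containing 100 μg/mL carbenicillin, 50 μM IPTG and 0.2% rhamnose, and pooled colonies were amplicon-sequenced on an Illumina HiSeq 2500.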

Row | Sequence | self-splicing fitness (ln) (30 °C) | self-splicing fitness (ln) (37 °C)
1 | GUUUAGCAAUAUUACGUAUA | -2.12 ± 0.16 | -1.41 ± 0.22
2 | GUUUAGCAAUAUUACGUCUA | -1.25 ± 0.14 | -0.618 ± 0.13
3 | GUUUAGCAAUAUUACGUUCC | -0.783 ± 0.26 | 
4 | GUUUAGCAAUAUUACGUUCG | -1.61 ± 0.13 | -0.589 ± 0.14
5 | GUUUAGCAAUAUUACGUUUG | -3.92 ± 0.33 | -1.45 ± 0.21
6 | UAAAAGCAAUAUUACGACCU | -0.4 ± 0.085 | 0.0792 ± 0.098
7 | UAAAAGCAAUAUUACGACUC | -1.22 ± 0.12 | -0.668 ± 0.18
8 | UAAAAGCAAUAUUACGACUU | -0.473 ± 0.098 | -0.07 ± 0.15
9 | UAAAAGCAAUAUUACGAUAA | -0.739 ± 0.077 | -0.348 ± 0.1
10 | UAAAAGCAAUAUUACGCAGC |  | -2.47 ± 0.39
11 | UAAAAGCAAUAUUACGCCAA | -2.34 ± 0.22 | -1.63 ± 0.18
12 | UAAAAGCAAUAUUACGCCAU | -3.62 ± 0.26 | -2.82 ± 0.3
13 | UAAAAGCAAUAUUACGCGAA | -2.23 ± 0.12 | -0.719 ± 0.12
14 | UAAAAGCAAUAUUACGCGAU | -3.3 ± 0.17 | -2.51 ± 0.2
15 | UAAAAGCAAUAUUACGCGGC | -3.63 ± 0.47 | -2.1 ± 0.31
16 | UAAAAGCAAUAUUACGCGUU | -2.85 ± 0.13 | -1.14 ± 0.13
17 | UAAAAGCAAUAUUACGCUAG | -1.09 ± 0.07 | -0.327 ± 0.091
18 | UAAAAGCAAUAUUACGCUCC | -2.04 ± 0.46 | -0.325 ± 0.48
19 | UAAAAGCAAUAUUACGGAAU | -3.12 ± 0.17 | -2.18 ± 0.2

Row | Sequence | self-splicing fitness (ln) (30 °C) | self-splicing fitness (ln) (37 °C)
20 | UAAAAGCAAUAUUACGGAGU | -3.65 ± 0.2 | -2.45 ± 0.19
21 | UAAAAGCAAUAUUACGGAUG | -0.849 ± 0.077 | 0.0272 ± 0.099
22 | UAAAAGCAAUAUUACGGAUU | -2.12 ± 0.14 | -1.56 ± 0.19
23 | UAAAAGCAAUAUUACGGCGG | -0.373 ± 0.078 | -0.0776 ± 0.11
24 | UAAAAGCAAUAUUACGGGCU | -2.79 ± 0.23 | -2 ± 0.29
25 | UAAAAGCAAUAUUACGGUAG | -1.14 ± 0.086 | -0.722 ± 0.097
26 | UAAAAGCAAUAUUACGGUGC | -3.65 ± 0.42 | -2.92 ± 0.35
27 | UAAAAGCAAUAUUACGUCAG | -1.56 ± 0.074 | -0.962 ± 0.097
28 | UAAAAGCAAUAUUACGUCGA | -1.39 ± 0.1 | -0.424 ± 0.12
29 | UAAAAGCAAUAUUACGUCGC | -3.18 ± 0.24 | -2.44 ± 0.36
30 | UAACAGCAAUAUUACGAGCC | -2.65 ± 0.24 | -2.24 ± 0.49
31 | UAACAGCAAUAUUACGAGGC | -3.62 ± 0.2 | -1.97 ± 0.18
32 | UAACAGCAAUAUUACGAUCA | -0.292 ± 0.074 | 0.115 ± 0.07
33 | UAACAGCAAUAUUACGAUCC |  | -2.04 ± 0.42
34 | UAACAGCAAUAUUACGAUGA | -1.01 ± 0.078 | -0.269 ± 0.088
35 | UAACAGCAAUAUUACGCAGU | -3.43 ± 0.19 | -3.5 ± 0.27
36 | UAACAGCAAUAUUACGCGUA | -0.931 ± 0.063 | -0.365 ± 0.067
37 | UAACAGCAAUAUUACGCGUC | -4.61 ± 0.34 | -2.7 ± 0.18
38 | UAACAGCAAUAUUACGCUGG | -3.29 ± 0.17 | -2.42 ± 0.21
